In test [1] the target is T1, TMR-labeled DnaK (DnaK FRET construct C15A/M404C/T437C labelled with tetramethylrhodamine) (E. coli, UniProt P0A6Y8 1-638, C15A | M404C | T437C, tetramethylrhodamine (TMR, from 5-IATR) on both introduced cysteines (M404C, T437C)).
T1 construct: DnaK, an E. coli Hsp70, with C15A, M404C, T437C; ATP (2 mM) present in the DnaJ experiments; source: E. coli dnak deletion strain BB205 (plasmid pBB46), purified, labelled with 5-IATR, HiTrap Q, monomer peak used
Briefly: other fluorescence titration; quenching of two TMR labels on DnaK (called FRET by the paper); 30 nM TMR-labeled DnaK, 2 mM ATP, buffer C (30 mM Tris-HCl pH 7.5, 25 mM KCl, 3 mM MgCl2, 10% glycerol), room temperature, DnaJ added at indicated concentrations. The conditions noted are these: both partners purified.

Test [2] addresses T2, TMR-labeled BiP protein (BiP-C41A/C420A/V429C/T462C labelled with tetramethylrhodamine) (human, UniProt P11021 19-654, C41A | C420A | V429C | T462C, tetramethylrhodamine (TMR, from 5-IATR) on both introduced cysteines (V429C, T462C)).
T2 construct: human BiP with C41A, C420A, V429C, T462C; ATP (2 mM) present in the ERdj3 experiments; also called TMR-labeled BiP FRET protein; source: E. coli BL21(DE3) Gold, purified, labelled with 5-IATR, HiTrap Q, monomer peak used; not shown: His6, N-terminal, cleaved; Smt3, N-terminal, cleaved
Put plainly: other fluorescence titration; quenching of two TMR labels on BiP (called FRET by the paper); 300 nM TMR-labeled BiP, 2 mM ATP, buffer B (30 mM Tris-HCl pH 7.0, 100 mM KCl, 3 mM MgCl2, 3 mM CaCl2, 10% glycerol), room temperature, serial dilutions of ERdj3, one-site binding fit. The conditions noted are these: both partners purified.

T2 sequence (P11021 19-654 C41A/C420A/V429C/T462C): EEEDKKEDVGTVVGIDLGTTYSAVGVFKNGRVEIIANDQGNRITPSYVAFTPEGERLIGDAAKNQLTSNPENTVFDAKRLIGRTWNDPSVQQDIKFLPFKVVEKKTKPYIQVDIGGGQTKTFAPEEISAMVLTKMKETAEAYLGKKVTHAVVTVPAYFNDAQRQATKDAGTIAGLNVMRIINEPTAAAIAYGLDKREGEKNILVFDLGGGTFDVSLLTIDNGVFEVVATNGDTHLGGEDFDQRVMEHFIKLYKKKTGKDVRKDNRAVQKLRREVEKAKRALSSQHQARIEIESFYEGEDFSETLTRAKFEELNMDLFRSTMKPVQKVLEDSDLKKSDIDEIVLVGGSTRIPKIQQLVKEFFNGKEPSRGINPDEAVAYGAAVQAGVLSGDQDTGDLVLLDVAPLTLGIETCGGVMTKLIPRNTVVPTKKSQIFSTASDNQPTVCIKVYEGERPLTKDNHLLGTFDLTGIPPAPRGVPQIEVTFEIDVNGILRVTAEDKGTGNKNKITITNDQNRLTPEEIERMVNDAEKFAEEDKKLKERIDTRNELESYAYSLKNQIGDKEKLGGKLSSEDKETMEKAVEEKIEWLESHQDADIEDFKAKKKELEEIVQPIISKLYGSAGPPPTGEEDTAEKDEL

B1: DnaJ (natural protein, UniProt P08622 1-376, looked up)
chain: MAKQDYYEILGVSKTAEEREIRKAYKRLAMKYHPDRNQGDKEAEAKFKEIKEAYEVLTDSQKRAAYDQYGHAAFEQGGMGGGGFGGGADFSDIFGDVFGDIFGGGRGRQRAARGADLRYNMELTLEEAVRGVTKEIRIPTLEECDVCHGSGAKPGTQPQTCPTCHGSGQVQMRQGFFAVQQTCPHCQGRGTLIKDPCNKCHGHGRVERSKTLSVKIPAGVDTGDRIRLAGEGEAGEHGAPAGDLYVQVQVKQHPIFEREGNNLYCEVPINFAMAALGGEIEVPTLDGRVKLKVPGETQTGKLFRMRGKGVKSVRGGAQGDLLCRVVVETPVGLNERQKQLLQELQESFGGPTGEHNSPRSKSFFDGVKKFFDDLTR
notes: DnaJ, the Hsp40 partner of DnaK; also called Hsp40 co-chaperone DnaJ; source: E. coli BL21(DE3) Gold, purified (HisTrap, Ulp1, HisTrap, Superdex 200); not shown: Smt3, N-terminal, cleaved; His6 (from the vector pSMT3), N-terminal, cleaved
In the case of B1, the “fold change of the dissociation constant against ERdj3-BiP” value in test [1] is ~10 times lower.

B2: ERdj3 (natural protein, UniProt Q9UBS4 23-358, looked up)
chain: GRDFYKILGVPRSASIKDIKKAYRKLALQLHPDRNPDDPQAQEKFQDLGAAYEVLSDSEKRKQYDTYGEEGLKDGHQSSHGDIFSHFFGDFGFMFGGTPRQQDRNIPRGSDIIVDLEVTLEEVYAGNFVEVVRNKPVARQAPGKRKCNCRQEMRTTQLGPGRFQMTQEVVCDECPNVKLVNEERTLEVEIEPGVRDGMEYPFIGEGEPHVDGEPGDLRFRIKVVKHPIFERRGDDLYTNVTISLVESLVGFEMDITHLDGHKVHISRDKITRPGAKLWKKGEGLPNFDNNNIKGSLIITFDVDFPKEQLTEEAREGIKQLLKQGSVQKVYNGLQGY
notes: ERdj3, an Hsp40 co-chaperone of BiP in the ER; plasmid a gift of Dr. Linda Hendershot; also called Hsp40 ERdj3; source: M15 E. coli, purified (HisTrap, 2 M urea in the lysis buffer, dialysis)
In general, Kd refers to the equilibrium constant for the complex coming apart. The molecule B2 displayed a Kd in test [2] of 1670 ± 110 nM.

For the origin of these results see article PMC5662698, “Conformation transitions of the polypeptide-binding pocket support an active substrate release from Hsp70s” (Nature Communications, 2017).
